Columns and labels:
Experiment in all cases: two-hybrid library CCNG1;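 also: natural log of median RNA to DNA barcode read ratio; higher means stronger binding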
4H607-bN = target: T1, 4H607-bN
T1 chain: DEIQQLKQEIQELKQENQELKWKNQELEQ

4H4001-bN = target: T2, 4H4001-bN
T2 chain: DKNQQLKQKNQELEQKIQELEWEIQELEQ

4H883-bN = target: T3, 4H883-bN
T3 chain: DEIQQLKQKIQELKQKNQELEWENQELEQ

4H797-bN = target: T4, 4H797-bN
T4 chain: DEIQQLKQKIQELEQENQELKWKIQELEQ

4H2729-bN = target: T5, 4H2729-bN
T5 chain: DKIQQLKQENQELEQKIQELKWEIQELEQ

4H3185-bN = target: T6, 4H3185-bN
T6 chain: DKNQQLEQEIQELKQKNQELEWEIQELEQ

4H754-bN = target: T7, 4H754-bN
T7 chain: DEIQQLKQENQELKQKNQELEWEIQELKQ

4H568-bN = target: T8, 4H568-bN
T8 chain: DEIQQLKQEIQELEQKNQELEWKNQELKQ

4H2667-bN = target: T9, 4H2667-bN
T9 chain: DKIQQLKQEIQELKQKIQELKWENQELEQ

4H3427-bN = target: T10, 4H3427-bN
T10 chain: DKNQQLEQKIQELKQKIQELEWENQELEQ

4H2576-bN = target: T11, 4H2576-bN
T11 chain: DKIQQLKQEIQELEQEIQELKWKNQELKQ

4H687-bN = target: T12, 4H687-bN
T12 chain: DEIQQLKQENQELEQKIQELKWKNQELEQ

4H331-bN = target: T13, 4H331-bN
T13 chain: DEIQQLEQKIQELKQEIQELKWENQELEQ

4H717-bN = target: T14, 4H717-bN
T14 chain: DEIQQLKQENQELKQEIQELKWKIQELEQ

4H370-bN = target: T15, 4H370-bN
T15 chain: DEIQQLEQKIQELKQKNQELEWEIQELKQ

4H908-bN = target: T16, 4H908-bN
T16 chain: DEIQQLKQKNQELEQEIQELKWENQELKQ

4H3354-bN = target: T17, 4H3354-bN
T17 chain: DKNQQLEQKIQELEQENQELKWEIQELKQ

4H3606-bN = target: T18, 4H3606-bN
T18 chain: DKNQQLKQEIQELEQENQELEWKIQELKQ

4H3843-bN = target: T19, 4H3843-bN
T19 chain: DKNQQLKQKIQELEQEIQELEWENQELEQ

4H2697-bN = target: T20, 4H2697-bN
T20 chain: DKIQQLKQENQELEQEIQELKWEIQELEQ

4H949-bN = target: T21, 4H949-bN
T21 chain: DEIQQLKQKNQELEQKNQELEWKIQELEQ

4H338-bN = target: T22, 4H338-bN
T22 chain: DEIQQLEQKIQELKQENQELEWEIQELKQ

4H918-bN = target: T23, 4H918-bN
T23 chain: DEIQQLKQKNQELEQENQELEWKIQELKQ

4H967-bN = target: T24, 4H967-bN
T24 chain: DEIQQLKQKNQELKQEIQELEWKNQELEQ

4H454-bN = target: T25, 4H454-bN
T25 chain: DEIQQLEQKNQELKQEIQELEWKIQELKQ

4H3112-bN = target: T26, 4H3112-bN
T26 chain: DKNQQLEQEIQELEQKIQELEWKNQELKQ

4H3782-bN = target: T27, 4H3782-bN
T27 chain: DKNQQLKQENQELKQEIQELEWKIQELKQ

4H72-bN = target: T28, 4H72-bN
T28 chain: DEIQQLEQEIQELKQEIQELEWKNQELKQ

4H3855-bN = target: T29, 4H3855-bN
T29 chain: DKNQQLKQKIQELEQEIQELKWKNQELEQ

4H462-bN = target: T30, 4H462-bN
T30 chain: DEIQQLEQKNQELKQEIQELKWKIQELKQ

4H3189-bN = target: T31, 4H3189-bN
T31 chain: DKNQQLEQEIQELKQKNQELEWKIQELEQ

4H953-bN = target: T32, 4H953-bN
T32 chain: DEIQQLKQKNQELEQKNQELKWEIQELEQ

4H2618-bN = target: T33, 4H2618-bN
T33 chain: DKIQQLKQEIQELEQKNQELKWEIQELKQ

4H2610-bN = target: T34, 4H2610-bN
T34 chain: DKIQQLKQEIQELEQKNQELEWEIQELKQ

DKIQQLKQEIQELEQEIQELKWKNQELKQ [4H2576-bN] gave an interaction score (4H607-bN) of -0.239, an interaction score (4H4001-bN) of 0.0889 and an interaction score (4H883-bN) of 1.47. It also gave an interaction score (4H797-bN) of -2.07, an interaction score (4H2729-bN) of 1.74 and an interaction score (4H3185-bN) of 0.148. It also gave an interaction score (4H754-bN) of 0.456, an interaction score (4H568-bN) of -0.0699 and an interaction score (4H2667-bN) of 1.21. The interaction score (4H3427-bN) was -2.5, the interaction score (4H2576-bN) was 1.12 and the interaction score (4H687-bN) was -0.515. It also gave an interaction score (4H331-bN) of 1.55, an interaction score (4H717-bN) of -0.909 and an interaction score (4H370-bN) of 0.65. It also gave an interaction score (4H908-bN) of -0.577, an interaction score (4H3354-bN) of -1.26 and an interaction score (4H3606-bN) of -0.101. For the same binder, the interaction score (4H3843-bN) was -0.264, the interaction score (4H2697-bN) was -0.235 and the interaction score (4H949-bN) was 0.288. The interaction score (4H338-bN) was 0.787, the interaction score (4H918-bN) was -1.21 and the interaction score (4H967-bN) was -1.08. The interaction score (4H454-bN) was -0.887, the interaction score (4H3112-bN) was -0.405 and the interaction score (4H3782-bN) was -0.233. For the same binder, the interaction score (4H72-bN) was 1.58, the interaction score (4H3855-bN) was 1.04 and the interaction score (4H462-bN) was 0.0924. For the same binder, the interaction score (4H3189-bN) was 0.118, the interaction score (4H953-bN) was -1.09 and the interaction score (4H2618-bN) was 0.876. For the same binder, the interaction score (4H2610-bN) was -0.395.
